Laboratory results taken from patent US20180079802A1 (VANDERBILT UNIVERSITY, published 2018).

What was measured:
CHIKV p62-E1 = CHIKV p62-E1 (Chikungunya virus); test: SPR (Biacore T100), IgG captured by anti-human IgG, p62-E1 injected
[1] = molecular target: CHIKV strain NI 64 IbH 35 (West African genotype) (Chikungunya virus strain NI 64 IbH 35); test: cell-based or functional assay
[2] = molecular target: CHIKV strain LR2006 OPY1 (LR) (ECSA genotype) (Chikungunya virus strain LR2006 OPY1); test: cell-based or functional assay
[3] = molecular target: CHIKV strain RSU1 (Asian genotype) (Chikungunya virus strain RSU1); test: cell-based or functional assay
[4] = molecular target: CHIKV strain 99659 (Asian genotype, 2014 Caribbean) (Chikungunya virus strain 99659); test: cell-based or functional assay

B1: 2D12 (antibody, V domains shown)
VH: QVQLVQSGAEVKKPGASVKVSCKASGYSFNIYGISWVRQAPGQGLEWMGWISAYNGNTNYAQKLQGRVTMTTDTSTSTAYMELRSLRSDDTAVYYCARPLWGEFYYDIWGQGTLVTVSS
VL: QAVVTQSPGTLSLSPGERATLSCRASQSVSSGYSAWYQQKPGQAPRLLIYGASKRAAGIPDRFSGSGSGTDFTLTISRLEPEDFAVYYCQLFATSPPPFGQGTRLEIK
Kd (CHIKV p62-E1): 0.49 nM | koff (CHIKV p62-E1): ~0.00086 s⁻¹ | kon (CHIKV p62-E1): 1.75e+06 M⁻¹ s⁻¹ | t1/2 (CHIKV p62-E1): 13 min

B2: 8G18 (antibody, V domains shown)
VH: QVQLVQSGAQVKKPGSSVKVSCKPSGGTFNNNGISWVRQAPGQGLEWMGGIVPNFGTPTYGQDFQGRVTITADESTSTVFLELTRLRSDDTAVYFCARGRTAVTPMQLGLQFYFDFWGRGTLVTVSS
VL: QTVVTQEPSLTVSPGGTVTLTCSANSGAVTSDYYPNWFQQKPGQAPRALIYSASNKFSWTPARFSGSLLGGKAALTLSGAQPEDEAEYYCLVYSGDGVVFGGGTKLTV
Kd (CHIKV p62-E1): 0.48 nM | koff (CHIKV p62-E1): 0.000188 s⁻¹ | kon (CHIKV p62-E1): 390000 M⁻¹ s⁻¹ | t1/2 (CHIKV p62-E1): 62 min

B3: 2B4 (antibody, V domains shown)
VH: QVQLVQSGSELKKPGASVKVSCKASGYSFTSYSINWVRQAPGQGPEWMGWIDTNTGNPTYAQDFAGRFVFSLDTSVTTAYLQISSLKAGDTAVYYCATYYVDLWGSYRQDYYGMDVWGH
VL: QSVLTQPPSASGTPGQRVTISCSGGSSNIGSNPVNWYQMVPGTAPKLLLYTNNQRPSGVPDRFSGSKSGTSASLAINGLQSEDEADYYCAVWDDSLSGRWVFGGGTKVTVL
Neutralization (FRNT), EC50 [1]: 3.2 ng/mL | Neutralization (FRNT), EC50 [2]: 5.6 ng/mL | Neutralization (FRNT), EC50 [3]: 6.5 ng/mL | Neutralization (FRNT), EC50 [4]: 7 ng/mL

B4: 4J21 (antibody, V domains shown)
VH: QVQLVQSGSELKKPGASVKVSCKASGYSFTSYSINWVRQAPGQGPEWMGWIDTNTGNPTYAQDFAGRFVFSLDTSVTTAYLQISSLKAGDTAVYYCATYYVDLWGSYRQDYYGMDVWGHGTLVTVSS
VL: QSVVTQPPSVSGTPGQGVTISCSGGSSNIGSNPVNWYQMVPGTAPKLLLYTNNQRPSGVPDRFSGSKSGTSASLAINGLQSEDEADYYCAVWDDSLSGRWVFGGGTKLTVL
Neutralization (FRNT), EC50 [1]: 5.2 ng/mL | Neutralization (FRNT), EC50 [2]: 7.4 ng/mL | Neutralization (FRNT), EC50 [3]: 7.7 ng/mL | Neutralization (FRNT), EC50 [4]: 7.2 ng/mL | Kd (CHIKV p62-E1): 0.54 nM | koff (CHIKV p62-E1): 6.2e-05 s⁻¹ | kon (CHIKV p62-E1): 119000 M⁻¹ s⁻¹ | t1/2 (CHIKV p62-E1): 186 min

B5: 3E23 (antibody, V domains shown)
VH: QVQLVQSGPGLVKPSDTLSLTCSVSSDALRSRSYYWGWVRQPPGKGLEWIGTVSYSGGTYYNPSLQSRVTVSVDTSKNHFSLRLNSVTAADAAVYYCARSYFYDGSGYYYLSYFDSWGQGTLVTVSS
VL: QAVVTQEPSLTVSPGGTVTLTCASSTGAVTSGHYPNWFQQKPGQPPRALIYSTDNKHSWTPARFSGSLLGVKAALTLSDVQPEDEADYYCLLHFGGVVVFGGGTKLTVL
koff (CHIKV p62-E1): 0.000267 s⁻¹ | t1/2 (CHIKV p62-E1): 43 min

B6: 4N12 (antibody, V domains shown)
VH: QVQLVQSGAEVKKPGASVKVSCKVSGYILSKLSVHWVRQAPGKGLEWMGGSEREDGETVYAQKFQGRISLTEDTSIETAYMELSSLSSEDTAVYYCATGGFWSMIGGNGVDYWGQGTLVTVSS
VL: QAVVTQSPSSLPASVGDRVTITCRASQDIRNNLGWYQQKPGKAPERLIYGTSNLQSGVPSRFSGSGSGTEFTLTISSLQPEDFATYYCLQHNSYPPTFGRGTKVEIK
Kd (CHIKV p62-E1): 0.95 nM | koff (CHIKV p62-E1): 0.000118 s⁻¹ | kon (CHIKV p62-E1): 124000 M⁻¹ s⁻¹ | t1/2 (CHIKV p62-E1): 98 min

B7: 4J14 (antibody, V domains shown)
VH: QVQLVQSGAEVKKPGSSVKVSCKASGGTSSTYAISWVRQAPGQGLEWMGGSIPVFATVNYAQKFQGRLTITADESTSTVYMELSSLRSEDTAVYFCASPYCSSMNCYTTFYYFDFWGQGTLVTVSS
VL: QAVVTQPASVFGFPGQSITISCTGTSSDFGTYNYVSWYQQHPGQAPKLMIFDVSNRPSGVSNRFSGSKSGNTASLTISGLQAEDEASYYCSSYTSGSTLYGGGTKLTVL
Kd (CHIKV p62-E1): 9.94 nM | koff (CHIKV p62-E1): 0.00153 s⁻¹ | kon (CHIKV p62-E1): 161000 M⁻¹ s⁻¹ | t1/2 (CHIKV p62-E1): 8 min

B8: 1L1 (antibody, V domains shown)
VH: QVQLVQSGPTLVKPTQTLTLTCTFSGFSLSISGVGVGWIRQPPGKALEWLALIYWDDDKRYSPSLKSRLTITKDTSENQVVLTMTNMDPVDTATYYCAHSMTKGGAIYGQAYFEYWGQGTLV
VL: PSPALEPDSDVGGYNYVSWYQQHPGKAPKLIIYDVTDRPSGVSNRFSASKSANTASLTISGLQAEDEADYYCSSYTSSST
Kd (CHIKV p62-E1): 3.79 nM | koff (CHIKV p62-E1): 0.000273 s⁻¹ | kon (CHIKV p62-E1): 88000 M⁻¹ s⁻¹ | t1/2 (CHIKV p62-E1): 42 min

B9: 5O14 (antibody, V domains shown)
VH: QVQLVQSGGRVVQAGRSLRLSCAASGFTFSMYGVHWVRQAPGKGLEWVAVIWNDGSKEYYGDSVKGRFTISRDNSRNTLYLQMNSLRVDDTAVYFCARDGIPDPERGDYGGLDYWGQGTLVTVSS
VL: QTVVTQFPSSPFASVGDGVTITCRARQSISSYVNWYQQKPGKAPKLLIYATSSLQSGVPSRFSGSGYGTDFTLTISGLQPEDFATYYCQQSYSFPRTFGQGTKVEIK
Neutralization (FRNT), EC50 [1]: 6.7 ng/mL | Neutralization (FRNT), EC50 [2]: 12.1 ng/mL | Neutralization (FRNT), EC50 [3]: 17.3 ng/mL | Neutralization (FRNT), EC50 [4]: 6.2 ng/mL | Kd (CHIKV p62-E1): 1.15 nM | koff (CHIKV p62-E1): 0.000911 s⁻¹ | kon (CHIKV p62-E1): 790000 M⁻¹ s⁻¹ | t1/2 (CHIKV p62-E1): 13 min

B10: 3A2 (antibody, V domains shown)
VH: QVQLVQSGGGVVQPGRSLRLSCAASGFTFSNYVMEWVRQAPGKGLEWVAVISYDGSNKYYADSVKGRFTISRDNSKNTLYLQMNSLRAEDTAVYYCARSEWESSYGSGNYYTDYFYYYAMDVWGPGTLVTVSS
VL: QAVVTQSPLSLPVTPGEPASISCRSNQSLLRGIRYNYLDWYLQKPGQSPQLLIYLGSNRASGVPDRFSGSGSATDFTLKISRVEAEDVGVYYCMQALQTPTTFGQGTRLEIK
Kd (CHIKV p62-E1): 4.78 nM | koff (CHIKV p62-E1): 0.00101 s⁻¹ | kon (CHIKV p62-E1): 212000 M⁻¹ s⁻¹ | t1/2 (CHIKV p62-E1): 11 min

B11: 2C2 (antibody, V domains shown)
VH: QVQLVQSGGGLVQPGRSLTLSCAASGFTFDVYAMHWVRQAPGKGLEWVAGISWNSGSVGYADSMKGRFTISRDNAKNSLYLQINSLRAEDTALYYCAKAFWFGELSGYGMDVWGQGTLVTVSS
VL: QAVVTQPPSASGFPGQSVTISCTGTSSDVGSYNYVSWYQQHPGKAPKLIIYAVTRRPSGVPERFSGSKSGNTASLTVSGLQAEDEADYYCTSYAGNNKDVFGTGTKVTVL
Neutralization (FRNT), EC50 [1]: > 10000 ng/mL | Neutralization (FRNT), EC50 [2]: > 10000 ng/mL | Neutralization (FRNT), EC50 [3]: > 10000 ng/mL | Kd (CHIKV p62-E1): 4.59 nM | koff (CHIKV p62-E1): 0.000608 s⁻¹ | kon (CHIKV p62-E1): 154000 M⁻¹ s⁻¹ | t1/2 (CHIKV p62-E1): 19 min

B12: 3B4 (antibody, V domains shown)
VH: QVQLEESGPTLVKPTQTLTLTCSFSGFSLTTTGVTVGWIRQPPGKALEWLALIYWDDDKRYSPSLKSRLTITKDTSKNQVVLTMTNMDPVDTATYYCAHSTGYYDSSGYRGALDAFAVWGQGTLVTVSS
VL: QIVVTQFPDSPAVSLGERATINCKSSQSVLYHSNNKNYLAWYQQKPGQPPNLLIYWASARQSGVPDRFSGSGSGTDFTLTISSLQAEDVAVYYCQQYYSTPYTFGQGTKLEIK
Kd (CHIKV p62-E1): 0.54 nM | koff (CHIKV p62-E1): 0.000156 s⁻¹ | kon (CHIKV p62-E1): 291000 M⁻¹ s⁻¹ | t1/2 (CHIKV p62-E1): 74 min
